Data reported in patent publication US20210388110A1 (published 2021).

Target: T1, soluble human CD3ε chain (human, UniProt P07766 23-126, limits assumed)
T1 construct: also called human CD3 epsilon chain
Experiment: SPR (Biacore), soluble human CD3ε chain

T1 sequence (P07766 23-126 limits assumed): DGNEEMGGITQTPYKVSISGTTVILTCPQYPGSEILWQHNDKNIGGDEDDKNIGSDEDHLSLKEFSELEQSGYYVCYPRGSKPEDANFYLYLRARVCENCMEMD

Binder | Kd [nM]
TR01H057-E22Hh/none-Hi-Kn010G3/L0000-k0 (antibody, human IgG1, kappa, L234A L235A, N297A, one-arm antibody (single Fab) with Fab-less hinge-Fc chain Hi-Kn010G3) heavy: QVQLVESGGGLVQPGRSLRLSCAASGFTFSNAWMHWVRQAPGKGLEWVAQIKDKSQNYATYYAESVKGRFTISRDDSKNSLYLQMNSLKTEDTAVYYCRYVHYSASYGVDAWGQGTTVTVSSASTKGPSVFPLAPSSKSTSGGTAALGCLVKDYFPEPVTVSWNSGALTSGVHTFPAVLQSSGLYSLSSVVTVPSSSLGTQTYICNVNHKPSNTKVDKKVEPKSCDKTHTCPPCPAPEAAGGPSVFLFPPKPKDTLMISRTPEVTCVVVDVSHEDPEVKFNWYVDGVEVHNAKTKPREEQYASTYRVVSVLTVLHQDWLNGKEYKCKVSNKALPAPIEKTISKAKGQPREPQVYTLPPSRCELTKNQVSLSCAVKGFYPSDIAVEWESNGQPENNYKTTPPVLDSDGSFFLVSKLTVDKSRWQQGNVFSCSVMHEALHNHYTQKSLSLSPDYKDDDDK EPKSSDKTHTCPPCPAPELLGGPSVFLFPPKPKDTLMISRTPEVTCVVVDVSHEDPEVKFNWYVDGVEVHNAKTKPREEQYNSTYRVVSVLTVLHQDWLNGKEYKCKVSNKALPAPIEKTISKAKGQPREPQVCTLPPSRDELTKNQVSLWCLVKGFYPSDIAVEWESNGQPENNYKTTPPVLDSDGSFFLYSKLTVDKSRWQQGNVFSCSVMHEALHNRYTQKSLSLSP light: DIVMTQSPLSLPVTPGEPASISCRSSQSLVHSNRNTYLHWYQQKPGQAPRLLIYKVSNRFSGVPDRFSGSGSGTDFTLKISRVEAEDVGVYYCGQGTQVPYTFGQGTKLEIKRTVAAPSVFIFPPSDEQLKSGTASVVCLLNNFYPREAKVQWKVDNALQSGNSQESVTEQDSKDSTYSLSSTLTLSKADYEKHKVYACEVTHQGLSSPVTKSFNRGEC | 112
TR01H058-E22Hh/none-Hi-Kn010G3/L0000-k0 (antibody, human IgG1, kappa, L234A L235A, N297A, one-arm antibody (single Fab) with Fab-less hinge-Fc chain Hi-Kn010G3) heavy: QVQLVESGGGLVQPGRSLRLSCAASGFTFSNAWMHWVRQAPGKGLEWVAQIKDKSQNYATYYAESVKGRFTISRDDSKNSLYLQMNSLKTEDTAVYYCRYVHYSASYGVDYWGQGTTVTVSSASTKGPSVFPLAPSSKSTSGGTAALGCLVKDYFPEPVTVSWNSGALTSGVHTFPAVLQSSGLYSLSSVVTVPSSSLGTQTYICNVNHKPSNTKVDKKVEPKSCDKTHTCPPCPAPEAAGGPSVFLFPPKPKDTLMISRTPEVTCVVVDVSHEDPEVKFNWYVDGVEVHNAKTKPREEQYASTYRVVSVLTVLHQDWLNGKEYKCKVSNKALPAPIEKTISKAKGQPREPQVYTLPPSRCELTKNQVSLSCAVKGFYPSDIAVEWESNGQPENNYKTTPPVLDSDGSFFLVSKLTVDKSRWQQGNVFSCSVMHEALHNHYTQKSLSLSPDYKDDDDK EPKSSDKTHTCPPCPAPELLGGPSVFLFPPKPKDTLMISRTPEVTCVVVDVSHEDPEVKFNWYVDGVEVHNAKTKPREEQYNSTYRVVSVLTVLHQDWLNGKEYKCKVSNKALPAPIEKTISKAKGQPREPQVCTLPPSRDELTKNQVSLWCLVKGFYPSDIAVEWESNGQPENNYKTTPPVLDSDGSFFLYSKLTVDKSRWQQGNVFSCSVMHEALHNRYTQKSLSLSP light: DIVMTQSPLSLPVTPGEPASISCRSSQSLVHSNRNTYLHWYQQKPGQAPRLLIYKVSNRFSGVPDRFSGSGSGTDFTLKISRVEAEDVGVYYCGQGTQVPYTFGQGTKLEIKRTVAAPSVFIFPPSDEQLKSGTASVVCLLNNFYPREAKVQWKVDNALQSGNSQESVTEQDSKDSTYSLSSTLTLSKADYEKHKVYACEVTHQGLSSPVTKSFNRGEC | 115

The next binders have a lower Kd than those just listed; values first:

Kd [nM] | Binder
76.3 | TR01H067-E22Hh/none-Hi-Kn010G3/L0222-k0 (antibody, human IgG1, kappa, L234A L235A, N297A, one-arm antibody (single Fab) with Fab-less hinge-Fc chain Hi-Kn010G3) heavy: QVQLVESGGGLVQPGRSLRLSCAASGFTFSNAWMHWVRQAPGKGLEWVAQIKDKSQNYATYYAESVKGRFTISRDDSKNSLYLQMNSLKTEDTAVYYCRYVHYAASYGVDAWGQGTTVTVSSASTKGPSVFPLAPSSKSTSGGTAALGCLVKDYFPEPVTVSWNSGALTSGVHTFPAVLQSSGLYSLSSVVTVPSSSLGTQTYICNVNHKPSNTKVDKKVEPKSCDKTHTCPPCPAPEAAGGPSVFLFPPKPKDTLMISRTPEVTCVVVDVSHEDPEVKFNWYVDGVEVHNAKTKPREEQYASTYRVVSVLTVLHQDWLNGKEYKCKVSNKALPAPIEKTISKAKGQPREPQVYTLPPSRCELTKNQVSLSCAVKGFYPSDIAVEWESNGQPENNYKTTPPVLDSDGSFFLVSKLTVDKSRWQQGNVFSCSVMHEALHNHYTQKSLSLSPDYKDDDDK EPKSSDKTHTCPPCPAPELLGGPSVFLFPPKPKDTLMISRTPEVTCVVVDVSHEDPEVKFNWYVDGVEVHNAKTKPREEQYNSTYRVVSVLTVLHQDWLNGKEYKCKVSNKALPAPIEKTISKAKGQPREPQVCTLPPSRDELTKNQVSLWCLVKGFYPSDIAVEWESNGQPENNYKTTPPVLDSDGSFFLYSKLTVDKSRWQQGNVFSCSVMHEALHNRYTQKSLSLSP light: DIVMTQSPLSLPVTPGEPASISCRSSQSPVHSNRNTYIQWYQQKPGQAPRLLIYKVSNRFSGVPDRFSGSGSGTDFTLKISRVEAEDVGVYYCYQGTQVPYTFGQGTKLEIKRTVAAPSVFIFPPSDEQLKSGTASVVCLLNNFYPREAKVQWKVDNALQSGNSQESVTEQDSKDSTYSLSSTLTLSKADYEKHKVYACEVTHQGLSSPVTKSFNRGEC
74.1 | TR01H067-E22Hh/none-Hi-Kn010G3/L0215-k0 (antibody, human IgG1, kappa, L234A L235A, N297A, one-arm antibody (single Fab) with Fab-less hinge-Fc chain Hi-Kn010G3) heavy: QVQLVESGGGLVQPGRSLRLSCAASGFTFSNAWMHWVRQAPGKGLEWVAQIKDKSQNYATYYAESVKGRFTISRDDSKNSLYLQMNSLKTEDTAVYYCRYVHYAASYGVDAWGQGTTVTVSSASTKGPSVFPLAPSSKSTSGGTAALGCLVKDYFPEPVTVSWNSGALTSGVHTFPAVLQSSGLYSLSSVVTVPSSSLGTQTYICNVNHKPSNTKVDKKVEPKSCDKTHTCPPCPAPEAAGGPSVFLFPPKPKDTLMISRTPEVTCVVVDVSHEDPEVKFNWYVDGVEVHNAKTKPREEQYASTYRVVSVLTVLHQDWLNGKEYKCKVSNKALPAPIEKTISKAKGQPREPQVYTLPPSRCELTKNQVSLSCAVKGFYPSDIAVEWESNGQPENNYKTTPPVLDSDGSFFLVSKLTVDKSRWQQGNVFSCSVMHEALHNHYTQKSLSLSPDYKDDDDK EPKSSDKTHTCPPCPAPELLGGPSVFLFPPKPKDTLMISRTPEVTCVVVDVSHEDPEVKFNWYVDGVEVHNAKTKPREEQYNSTYRVVSVLTVLHQDWLNGKEYKCKVSNKALPAPIEKTISKAKGQPREPQVCTLPPSRDELTKNQVSLWCLVKGFYPSDIAVEWESNGQPENNYKTTPPVLDSDGSFFLYSKLTVDKSRWQQGNVFSCSVMHEALHNRYTQKSLSLSP light: DIVMTQSPLSLPVTPGEPASISCRSSQPPVHSNRNTYIHWYQQKPGQAPRLLIYKVSNRFSGVPDRFSGSGSGTDFTLKISRVEAEDVGVYYCGQGTQVPYTFGQGTKLEIKRTVAAPSVFIFPPSDEQLKSGTASVVCLLNNFYPREAKVQWKVDNALQSGNSQESVTEQDSKDSTYSLSSTLTLSKADYEKHKVYACEVTHQGLSSPVTKSFNRGEC
71.8 | TR01H067-E22Hh/none-Hi-Kn010G3/L0011-k0 (antibody, human IgG1, kappa, L234A L235A, N297A, one-arm antibody (single Fab) with Fab-less hinge-Fc chain Hi-Kn010G3) heavy: QVQLVESGGGLVQPGRSLRLSCAASGFTFSNAWMHWVRQAPGKGLEWVAQIKDKSQNYATYYAESVKGRFTISRDDSKNSLYLQMNSLKTEDTAVYYCRYVHYAASYGVDAWGQGTTVTVSSASTKGPSVFPLAPSSKSTSGGTAALGCLVKDYFPEPVTVSWNSGALTSGVHTFPAVLQSSGLYSLSSVVTVPSSSLGTQTYICNVNHKPSNTKVDKKVEPKSCDKTHTCPPCPAPEAAGGPSVFLFPPKPKDTLMISRTPEVTCVVVDVSHEDPEVKFNWYVDGVEVHNAKTKPREEQYASTYRVVSVLTVLHQDWLNGKEYKCKVSNKALPAPIEKTISKAKGQPREPQVYTLPPSRCELTKNQVSLSCAVKGFYPSDIAVEWESNGQPENNYKTTPPVLDSDGSFFLVSKLTVDKSRWQQGNVFSCSVMHEALHNHYTQKSLSLSPDYKDDDDK EPKSSDKTHTCPPCPAPELLGGPSVFLFPPKPKDTLMISRTPEVTCVVVDVSHEDPEVKFNWYVDGVEVHNAKTKPREEQYNSTYRVVSVLTVLHQDWLNGKEYKCKVSNKALPAPIEKTISKAKGQPREPQVCTLPPSRDELTKNQVSLWCLVKGFYPSDIAVEWESNGQPENNYKTTPPVLDSDGSFFLYSKLTVDKSRWQQGNVFSCSVMHEALHNRYTQKSLSLSP light: DIVMTQSPLSLPVTPGEPASISCRSSQPLVHSNRNTYLHWYQQKPGQAPRLLIYKVSNRFSGVPDRFSGSGSGTDFTLKISRVEAEDVGVYYCGQGTQVPYTFGQGTKLEIKRTVAAPSVFIFPPSDEQLKSGTASVVCLLNNFYPREAKVQWKVDNALQSGNSQESVTEQDSKDSTYSLSSTLTLSKADYEKHKVYACEVTHQGLSSPVTKSFNRGEC
